Data as given in patent US20230357348A1 (AstraZeneca / MedImmune, published 2023).
Starred links: 1 amine or outer side, 2 acyl side, 3 side chain; linkers in the order of their positions; H or OH if unused. Non-standard residues stand in square brackets, D forms with d. Groups on a side chain read outwards from the residue. No end group written: not given here. *: point of attachment. C20 diacid = O=C(O)CCCCCCCCCCCCCCCCCCC(=O)*; C18 diacid = O=C(O)CCCCCCCCCCCCCCCCC(=O)*; γGlu = O=C(O)[C@H](CCC(=O)[*:2])N[*:1]; αMeF = C[C@](N)(Cc1ccccc1)C(=O)O; AEEA = NCCOCCOCC(=O)O; Aib = CC(C)(N)C(=O)O

B1: Peptide 33 (peptide)
peptide: H[Aib]QGTFTSDVSK[αMeF]LDSK([AEEA-AEEA-γGlu-C18 diacid])RAQDFVQWLE[Aib]T-OH
modifications: N-terminus assumed
SMILES: CC(C)C[C@H](NC(=O)[C@H](Cc1c[nH]c2ccccc12)NC(=O)[C@H](CCC(N)=O)NC(=O)[C@@H](NC(=O)[C@H](Cc1ccccc1)NC(=O)[C@H](CC(=O)O)NC(=O)[C@H](CCC(N)=O)NC(=O)[C@H](C)NC(=O)[C@H](CCCNC(=N)N)NC(=O)[C@H](CCCCNC(=O)COCCOCCNC(=O)COCCOCCNC(=O)CC[C@H](NC(=O)CCCCCCCCCCCCCCCCC(=O)O)C(=O)O)NC(=O)[C@H](CO)NC(=O)[C@H](CC(=O)O)NC(=O)[C@H](CC(C)C)NC(=O)[C@](C)(Cc1ccccc1)NC(=O)[C@H](CCCCN)NC(=O)[C@H](CO)NC(=O)[C@@H](NC(=O)[C@H](CC(=O)O)NC(=O)[C@H](CO)NC(=O)[C@@H](NC(=O)[C@H](Cc1ccccc1)NC(=O)[C@@H](NC(=O)CNC(=O)[C@H](CCC(N)=O)NC(=O)C(C)(C)NC(=O)[C@@H](N)Cc1c[nH]cn1)[C@@H](C)O)[C@@H](C)O)C(C)C)C(C)C)C(=O)N[C@@H](CCC(=O)O)C(=O)NC(C)(C)C(=O)N[C@H](C(=O)O)[C@@H](C)O
B2: Peptide 166 (peptide)
peptide: H[Aib]QGTFTSDVSK[αMeF]LDSK([AEEA-AEEA-γGlu-C18 diacid])RARDFVRWLL[Aib]TE-OH
modifications: N-terminus assumed
SMILES: CC(C)C[C@H](NC(=O)[C@H](Cc1c[nH]c2ccccc12)NC(=O)[C@H](CCCNC(=N)N)NC(=O)[C@@H](NC(=O)[C@H](Cc1ccccc1)NC(=O)[C@H](CC(=O)O)NC(=O)[C@H](CCCNC(=N)N)NC(=O)[C@H](C)NC(=O)[C@H](CCCNC(=N)N)NC(=O)[C@H](CCCCNC(=O)COCCOCCNC(=O)COCCOCCNC(=O)CC[C@H](NC(=O)CCCCCCCCCCCCCCCCC(=O)O)C(=O)O)NC(=O)[C@H](CO)NC(=O)[C@H](CC(=O)O)NC(=O)[C@H](CC(C)C)NC(=O)[C@](C)(Cc1ccccc1)NC(=O)[C@H](CCCCN)NC(=O)[C@H](CO)NC(=O)[C@@H](NC(=O)[C@H](CC(=O)O)NC(=O)[C@H](CO)NC(=O)[C@@H](NC(=O)[C@H](Cc1ccccc1)NC(=O)[C@@H](NC(=O)CNC(=O)[C@H](CCC(N)=O)NC(=O)C(C)(C)NC(=O)[C@@H](N)Cc1c[nH]cn1)[C@@H](C)O)[C@@H](C)O)C(C)C)C(C)C)C(=O)N[C@@H](CC(C)C)C(=O)NC(C)(C)C(=O)N[C@H](C(=O)N[C@@H](CCC(=O)O)C(=O)O)[C@@H](C)O
B3: Peptide 153 (peptide)
peptide: H[Aib]QGTFTSDVSK[αMeF]LDSK([AEEA-AEEA-γGlu-C20 diacid])RAQDFVRWLL[Aib]E-OH
modifications: N-terminus assumed
SMILES: CC(C)C[C@H](NC(=O)[C@H](Cc1c[nH]c2ccccc12)NC(=O)[C@H](CCCNC(=N)N)NC(=O)[C@@H](NC(=O)[C@H](Cc1ccccc1)NC(=O)[C@H](CC(=O)O)NC(=O)[C@H](CCC(N)=O)NC(=O)[C@H](C)NC(=O)[C@H](CCCNC(=N)N)NC(=O)[C@H](CCCCNC(=O)COCCOCCNC(=O)COCCOCCNC(=O)CC[C@H](NC(=O)CCCCCCCCCCCCCCCCCCC(=O)O)C(=O)O)NC(=O)[C@H](CO)NC(=O)[C@H](CC(=O)O)NC(=O)[C@H](CC(C)C)NC(=O)[C@](C)(Cc1ccccc1)NC(=O)[C@H](CCCCN)NC(=O)[C@H](CO)NC(=O)[C@@H](NC(=O)[C@H](CC(=O)O)NC(=O)[C@H](CO)NC(=O)[C@@H](NC(=O)[C@H](Cc1ccccc1)NC(=O)[C@@H](NC(=O)CNC(=O)[C@H](CCC(N)=O)NC(=O)C(C)(C)NC(=O)[C@@H](N)Cc1c[nH]cn1)[C@@H](C)O)[C@@H](C)O)C(C)C)C(C)C)C(=O)N[C@@H](CC(C)C)C(=O)NC(C)(C)C(=O)N[C@@H](CCC(=O)O)C(=O)O
B4: Peptide 34 (peptide)
peptide: H[Aib]QGTFTSDVSK[αMeF]LDSK([AEEA-AEEA-γGlu-C18 diacid])RAQDFVQWLL[Aib]E-OH
modifications: N-terminus assumed
SMILES: CC(C)C[C@H](NC(=O)[C@H](Cc1c[nH]c2ccccc12)NC(=O)[C@H](CCC(N)=O)NC(=O)[C@@H](NC(=O)[C@H](Cc1ccccc1)NC(=O)[C@H](CC(=O)O)NC(=O)[C@H](CCC(N)=O)NC(=O)[C@H](C)NC(=O)[C@H](CCCNC(=N)N)NC(=O)[C@H](CCCCNC(=O)COCCOCCNC(=O)COCCOCCNC(=O)CC[C@H](NC(=O)CCCCCCCCCCCCCCCCC(=O)O)C(=O)O)NC(=O)[C@H](CO)NC(=O)[C@H](CC(=O)O)NC(=O)[C@H](CC(C)C)NC(=O)[C@](C)(Cc1ccccc1)NC(=O)[C@H](CCCCN)NC(=O)[C@H](CO)NC(=O)[C@@H](NC(=O)[C@H](CC(=O)O)NC(=O)[C@H](CO)NC(=O)[C@@H](NC(=O)[C@H](Cc1ccccc1)NC(=O)[C@@H](NC(=O)CNC(=O)[C@H](CCC(N)=O)NC(=O)C(C)(C)NC(=O)[C@@H](N)Cc1c[nH]cn1)[C@@H](C)O)[C@@H](C)O)C(C)C)C(C)C)C(=O)N[C@@H](CC(C)C)C(=O)NC(C)(C)C(=O)N[C@@H](CCC(=O)O)C(=O)O
B5: Peptide 520 (peptide)
peptide: H[Aib]QGTFTSDVSK[αMeF]LDTKRARDFVQWLLE[Aib]G-OH
modifications: not fully specified (residue 17)
B6: Peptide 518 (peptide)
peptide: H[Aib]QGTFTSDVSK[αMeF]LDTK([AEEA-AEEA-γGlu-γGlu-C18 diacid])RARDFVQWLLE[Aib]G-OH
modifications: N-terminus assumed
SMILES: CC(C)C[C@H](NC(=O)[C@H](Cc1c[nH]c2ccccc12)NC(=O)[C@H](CCC(N)=O)NC(=O)[C@@H](NC(=O)[C@H](Cc1ccccc1)NC(=O)[C@H](CC(=O)O)NC(=O)[C@H](CCCNC(=N)N)NC(=O)[C@H](C)NC(=O)[C@H](CCCNC(=N)N)NC(=O)[C@H](CCCCNC(=O)COCCOCCNC(=O)COCCOCCNC(=O)CC[C@H](NC(=O)CC[C@H](NC(=O)CCCCCCCCCCCCCCCCC(=O)O)C(=O)O)C(=O)O)NC(=O)[C@@H](NC(=O)[C@H](CC(=O)O)NC(=O)[C@H](CC(C)C)NC(=O)[C@](C)(Cc1ccccc1)NC(=O)[C@H](CCCCN)NC(=O)[C@H](CO)NC(=O)[C@@H](NC(=O)[C@H](CC(=O)O)NC(=O)[C@H](CO)NC(=O)[C@@H](NC(=O)[C@H](Cc1ccccc1)NC(=O)[C@@H](NC(=O)CNC(=O)[C@H](CCC(N)=O)NC(=O)C(C)(C)NC(=O)[C@@H](N)Cc1c[nH]cn1)[C@@H](C)O)[C@@H](C)O)C(C)C)[C@@H](C)O)C(C)C)C(=O)N[C@@H](CC(C)C)C(=O)N[C@@H](CCC(=O)O)C(=O)NC(C)(C)C(=O)NCC(=O)O
B7: Peptide 519 (peptide)
peptide: H[Aib]QGTFTSDVSK[αMeF]LDTK([γGlu-γGlu-AEEA-AEEA-γGlu-γGlu-C18 diacid])RARDFVQWLLE[Aib]G-OH
modifications: N-terminus assumed
SMILES: CC(C)C[C@H](NC(=O)[C@H](Cc1c[nH]c2ccccc12)NC(=O)[C@H](CCC(N)=O)NC(=O)[C@@H](NC(=O)[C@H](Cc1ccccc1)NC(=O)[C@H](CC(=O)O)NC(=O)[C@H](CCCNC(=N)N)NC(=O)[C@H](C)NC(=O)[C@H](CCCNC(=N)N)NC(=O)[C@H](CCCCNC(=O)CC[C@H](NC(=O)CC[C@H](NC(=O)COCCOCCNC(=O)COCCOCCNC(=O)CC[C@H](NC(=O)CC[C@H](NC(=O)CCCCCCCCCCCCCCCCC(=O)O)C(=O)O)C(=O)O)C(=O)O)C(=O)O)NC(=O)[C@@H](NC(=O)[C@H](CC(=O)O)NC(=O)[C@H](CC(C)C)NC(=O)[C@](C)(Cc1ccccc1)NC(=O)[C@H](CCCCN)NC(=O)[C@H](CO)NC(=O)[C@@H](NC(=O)[C@H](CC(=O)O)NC(=O)[C@H](CO)NC(=O)[C@@H](NC(=O)[C@H](Cc1ccccc1)NC(=O)[C@@H](NC(=O)CNC(=O)[C@H](CCC(N)=O)NC(=O)C(C)(C)NC(=O)[C@@H](N)Cc1c[nH]cn1)[C@@H](C)O)[C@@H](C)O)C(C)C)[C@@H](C)O)C(C)C)C(=O)N[C@@H](CC(C)C)C(=O)N[C@@H](CCC(=O)O)C(=O)NC(C)(C)C(=O)NCC(=O)O
B8: Peptide 152 (peptide)
peptide: H[Aib]QGTFTSDVSK[αMeF]LDSK([AEEA-AEEA-γGlu-C18 diacid])RAQDFVRWLL[Aib]E-OH
modifications: N-terminus assumed
SMILES: CC(C)C[C@H](NC(=O)[C@H](Cc1c[nH]c2ccccc12)NC(=O)[C@H](CCCNC(=N)N)NC(=O)[C@@H](NC(=O)[C@H](Cc1ccccc1)NC(=O)[C@H](CC(=O)O)NC(=O)[C@H](CCC(N)=O)NC(=O)[C@H](C)NC(=O)[C@H](CCCNC(=N)N)NC(=O)[C@H](CCCCNC(=O)COCCOCCNC(=O)COCCOCCNC(=O)CC[C@H](NC(=O)CCCCCCCCCCCCCCCCC(=O)O)C(=O)O)NC(=O)[C@H](CO)NC(=O)[C@H](CC(=O)O)NC(=O)[C@H](CC(C)C)NC(=O)[C@](C)(Cc1ccccc1)NC(=O)[C@H](CCCCN)NC(=O)[C@H](CO)NC(=O)[C@@H](NC(=O)[C@H](CC(=O)O)NC(=O)[C@H](CO)NC(=O)[C@@H](NC(=O)[C@H](Cc1ccccc1)NC(=O)[C@@H](NC(=O)CNC(=O)[C@H](CCC(N)=O)NC(=O)C(C)(C)NC(=O)[C@@H](N)Cc1c[nH]cn1)[C@@H](C)O)[C@@H](C)O)C(C)C)C(C)C)C(=O)N[C@@H](CC(C)C)C(=O)NC(C)(C)C(=O)N[C@@H](CCC(=O)O)C(=O)O

Biological target: human glucagon receptor (hGCGR) (human, UniProt P47871 26-477)
Assay: cell-based or functional assay

human glucagon receptor (hGCGR), sequence (P47871 26-477): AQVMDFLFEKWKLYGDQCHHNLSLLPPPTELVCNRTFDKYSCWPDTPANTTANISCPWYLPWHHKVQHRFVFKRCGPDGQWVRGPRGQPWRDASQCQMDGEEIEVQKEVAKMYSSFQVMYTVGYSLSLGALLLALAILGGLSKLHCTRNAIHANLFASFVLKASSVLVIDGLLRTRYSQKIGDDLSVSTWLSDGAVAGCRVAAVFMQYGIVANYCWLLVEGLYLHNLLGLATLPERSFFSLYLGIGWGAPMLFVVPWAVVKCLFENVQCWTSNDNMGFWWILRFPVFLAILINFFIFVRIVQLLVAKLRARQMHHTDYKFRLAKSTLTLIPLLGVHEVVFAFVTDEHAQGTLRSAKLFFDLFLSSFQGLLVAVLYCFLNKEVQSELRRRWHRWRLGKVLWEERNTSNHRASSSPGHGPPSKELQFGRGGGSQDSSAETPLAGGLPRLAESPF

hGluc-R EC50 (pM)	Binder
548 pM	B1
270 pM	B2
99 pM	B3
161 pM	B4
1620 pM	B5
77.3 pM	B6
386 pM	B7
20.4 pM	B8

Biological target: human GLP-1 receptor (hGLP-1R) (human, UniProt P43220 24-463)
Assay: cell-based or functional assay

hGLP-1R EC50 (pM)	Binder
213 pM	B1
48 pM	B2
41.2 pM	B3
82.4 pM	B4
543 pM	B5
31 pM	B6
172 pM	B7
11.9 pM	B8
